Assay results from patent US20210275545A1 (YEDA RESEARCH AND DEVELOPMENT, published 2021).
Each block holds one binder with its values, some of them ahead of it.

B3: FLI1, untagged (other, UniProt Q01543 1-452, looked up)
chain: MDGTIKEALSVVSDDQSLFDSAYGAAAHLPKADMTASGSPDYGQPHKINPLPPQQEWINQPVRVNVKREYDHMNGSRESPVDCSVSKCSKLVGGGESNPMNYNSYMDEKNGPPPPNMTTNERRVIVPADPTLWTQEHVRQWLEWAIKEYSLMEIDTSFFQNMDGKELCKMNKEDFLRATTLYNTEVLLSHLSYLRESSLLAYNTTSHTDQSSRLSVKEDPSYDSVRRGAWGNNMNSGLNKSPPLGGAQTISKNTEQRPQPDPYQILGPTSSRLANPGSGQIQLWQFLLELLSDSANASCITWEGTNGEFKMTDPDEVARRWGERKSKPNMNYDKLSRALRYYYDKNIMTKVHGKRYAYKFDFHGIAQALQPHPTESSMYKYPSDISYMPSYHAHQQKVNFVPPHPSSMPVTSSSFFGAASQYWTSPTGGIYPNPNVPRHPNTHVPSHLGSYY
notes: Stands for endogenous FLI1 (HEK-293T, A673) in co-immunoprecipitation and PLA, and for FLI1 from an expression vector in the reporter assays; also called endogenous FLI1

Assays:
[1] = molecular target: B3; assay: co-immunoprecipitation with anti-Gluc antibody, immunoblot for endogenous FLI1, HEK-293 cells (FIG. 3D)
Procedure: (§1) HEK-293T cells (6×10³) were seeded in each well of 96-well plates. […] Cells were lysed after 24 hours and processed for co-immunoprecipitation assays, in which the Gluc protein was immunoprecipitated using a specific antibody. […] Blots are representative of three or more biological replicates. […] Similarly, the input of recombinant proteins is shown in the middle panels of C and D. Both molecular weights and relative quantities of individual Gluc fusion proteins are shown by means of immunoblotting with an antibody to Gluc. Individual fusion proteins are identified by numbers and their molecular weights are calculated below each panel.

[2] = molecular target: T1, Gluc1-PU.1 (UniProt P17947-2 1-271); assay: PCA (split Gaussia luciferase) in HEK-293 cells, DEX 1.0 µM 60 min (FIG. 1B)
T1 construct: not shown: Gaussia luciferase (Gluc), amino-terminal fragment Gluc1, amino acids 1-93
Text: EB, empty beads; C, solvent control. Images shown are representative of three biological replicates.
The resulting luminescence was normalized to the signal associated with cells treated with vehicle only.

[3] = molecular target: T2, glucocorticoid receptor (GR), untagged (human, UniProt P04150 1-777); assay: cell-based or functional assay
T2 sequence (looked up): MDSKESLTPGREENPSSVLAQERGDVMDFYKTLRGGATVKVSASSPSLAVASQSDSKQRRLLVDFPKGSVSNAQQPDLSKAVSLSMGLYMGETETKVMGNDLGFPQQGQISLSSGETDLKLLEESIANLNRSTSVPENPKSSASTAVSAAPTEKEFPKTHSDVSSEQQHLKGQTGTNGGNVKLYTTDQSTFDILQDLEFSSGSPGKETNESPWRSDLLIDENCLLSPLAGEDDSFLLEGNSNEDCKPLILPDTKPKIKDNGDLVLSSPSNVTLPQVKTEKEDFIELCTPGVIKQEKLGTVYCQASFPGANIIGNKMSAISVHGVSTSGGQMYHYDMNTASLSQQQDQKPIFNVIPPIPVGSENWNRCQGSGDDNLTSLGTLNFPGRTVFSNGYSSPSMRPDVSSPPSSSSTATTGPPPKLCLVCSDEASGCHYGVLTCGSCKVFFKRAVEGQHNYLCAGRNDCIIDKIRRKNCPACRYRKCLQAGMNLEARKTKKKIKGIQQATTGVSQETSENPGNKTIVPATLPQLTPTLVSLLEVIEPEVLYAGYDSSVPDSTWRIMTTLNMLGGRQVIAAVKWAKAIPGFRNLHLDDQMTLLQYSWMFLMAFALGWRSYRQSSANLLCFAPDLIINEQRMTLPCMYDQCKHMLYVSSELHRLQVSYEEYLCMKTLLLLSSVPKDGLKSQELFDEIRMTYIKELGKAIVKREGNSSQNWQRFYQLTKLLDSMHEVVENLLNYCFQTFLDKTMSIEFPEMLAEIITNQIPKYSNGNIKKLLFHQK

[4] = molecular target: T3, GR NTD+DBD-Gluc2 (NTD and DBD of GR fused to Gluc2) (human, UniProt P04150 1-486); assay: co-immunoprecipitation with anti-Gluc antibody, immunoblot for endogenous FLI1, HEK-293 cells (FIG. 3D)
T3 construct: domain: NTD+DBD;range 94-169; not shown: Gaussia luciferase (Gluc), carboxyl-terminal fragment Gluc2, amino acids 94-169
T3 sequence (looked up): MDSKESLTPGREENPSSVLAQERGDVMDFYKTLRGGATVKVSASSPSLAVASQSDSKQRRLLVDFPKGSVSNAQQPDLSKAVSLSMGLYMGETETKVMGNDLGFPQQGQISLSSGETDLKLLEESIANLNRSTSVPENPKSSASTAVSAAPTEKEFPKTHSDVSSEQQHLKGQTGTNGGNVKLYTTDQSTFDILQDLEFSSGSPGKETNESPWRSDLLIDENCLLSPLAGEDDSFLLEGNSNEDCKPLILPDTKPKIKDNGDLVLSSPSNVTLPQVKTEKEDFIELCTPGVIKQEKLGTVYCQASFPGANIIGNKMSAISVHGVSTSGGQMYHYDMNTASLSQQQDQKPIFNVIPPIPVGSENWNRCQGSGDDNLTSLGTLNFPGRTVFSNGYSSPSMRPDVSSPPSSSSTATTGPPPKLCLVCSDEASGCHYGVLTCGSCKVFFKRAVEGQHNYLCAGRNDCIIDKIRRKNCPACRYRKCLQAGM
Procedure: as §1

[5] = molecular target: T1, Gluc1-PU.1; assay: PCA in HEK-293T cells, estradiol 10 nM 60 min (FIG. 8C)
Procedure: (A) HEK-293T cells (6×10³) were seeded in 96-well plates. […] (B and C) HEK-293T cells (6×10³) were seeded in 96-well plates. […] Cells were then lysed and luminescence was determined.

B2: GR-Gluc2 (full-length glucocorticoid receptor fused at its carboxyl terminus to Gluc2) (receptor, UniProt P04150 1-777, looked up)
chain: MDSKESLTPGREENPSSVLAQERGDVMDFYKTLRGGATVKVSASSPSLAVASQSDSKQRRLLVDFPKGSVSNAQQPDLSKAVSLSMGLYMGETETKVMGNDLGFPQQGQISLSSGETDLKLLEESIANLNRSTSVPENPKSSASTAVSAAPTEKEFPKTHSDVSSEQQHLKGQTGTNGGNVKLYTTDQSTFDILQDLEFSSGSPGKETNESPWRSDLLIDENCLLSPLAGEDDSFLLEGNSNEDCKPLILPDTKPKIKDNGDLVLSSPSNVTLPQVKTEKEDFIELCTPGVIKQEKLGTVYCQASFPGANIIGNKMSAISVHGVSTSGGQMYHYDMNTASLSQQQDQKPIFNVIPPIPVGSENWNRCQGSGDDNLTSLGTLNFPGRTVFSNGYSSPSMRPDVSSPPSSSSTATTGPPPKLCLVCSDEASGCHYGVLTCGSCKVFFKRAVEGQHNYLCAGRNDCIIDKIRRKNCPACRYRKCLQAGMNLEARKTKKKIKGIQQATTGVSQETSENPGNKTIVPATLPQLTPTLVSLLEVIEPEVLYAGYDSSVPDSTWRIMTTLNMLGGRQVIAAVKWAKAIPGFRNLHLDDQMTLLQYSWMFLMAFALGWRSYRQSSANLLCFAPDLIINEQRMTLPCMYDQCKHMLYVSSELHRLQVSYEEYLCMKTLLLLSSVPKDGLKSQELFDEIRMTYIKELGKAIVKREGNSSQNWQRFYQLTKLLDSMHEVVENLLNYCFQTFLDKTMSIEFPEMLAEIITNQIPKYSNGNIKKLLFHQK
notes: domain: full length;range 94-169; Expressed in HEK-293/HEK-293T cells by transfection; also called Gluc2-GR; not shown: Gaussia luciferase (Gluc), carboxyl-terminal fragment Gluc2, amino acids 94-169
binding result [2]: binds

Binder: B3
GRE activity, luciferase reporter (FIG. 4D) [3]: 17 fold
GRE activity, luciferase reporter, endogenous GR with DEX (FIG. 4E) [3]: ~2 fold
binding result [4]: no binding

More lines, now with the values ahead:

binding result [1]: no binding
B1: GR NTD-Gluc2 (NTD of GR fused to Gluc2) (other, UniProt P04150 1-420, looked up, not shown: large carriers)
chain: MDSKESLTPGREENPSSVLAQERGDVMDFYKTLRGGATVKVSASSPSLAVASQSDSKQRRLLVDFPKGSVSNAQQPDLSKAVSLSMGLYMGETETKVMGNDLGFPQQGQISLSSGETDLKLLEESIANLNRSTSVPENPKSSASTAVSAAPTEKEFPKTHSDVSSEQQHLKGQTGTNGGNVKLYTTDQSTFDILQDLEFSSGSPGKETNESPWRSDLLIDENCLLSPLAGEDDSFLLEGNSNEDCKPLILPDTKPKIKDNGDLVLSSPSNVTLPQVKTEKEDFIELCTPGVIKQEKLGTVYCQASFPGANIIGNKMSAISVHGVSTSGGQMYHYDMNTASLSQQQDQKPIFNVIPPIPVGSENWNRCQGSGDDNLTSLGTLNFPGRTVFSNGYSSPSMRPDVSSPPSSSSTATTGPPPKL
notes: domain: NTD;range 94-169

binding result [5]: no binding
B4: ERα-Gluc2 (estrogen receptor alpha fused to Gluc2) (receptor, UniProt P03372 1-595, looked up)
chain: MTMTLHTKASGMALLHQIQGNELEPLNRPQLKIPLERPLGEVYLDSSKPAVYNYPEGAAYEFNAAAAANAQVYGQTGLPYGPGSEAAAFGSNGLGGFPPLNSVSPSPLMLLHPPPQLSPFLQPHGQQVPYYLENEPSGYTVREAGPPAFYRPNSDNRRQGGRERLASTNDKGSMAMESAKETRYCAVCNDYASGYHYGVWSCEGCKAFFKRSIQGHNDYMCPATNQCTIDKNRRKSCQACRLRKCYEVGMMKGGIRKDRRGGRMLKHKRQRDDGEGRGEVGSAGDMRAANLWPSPLMIKRSKKNSLALSLTADQMVSALLDAEPPILYSEYDPTRPFSEASMMGLLTNLADRELVHMINWAKRVPGFVDLTLHDQVHLLECAWLEILMIGLVWRSMEHPGKLLFAPNLLLDRNQGKCVEGMVEIFDMLLATSSRFRMMNLQGEEFVCLKSIILLNSGVYTFLSSTLKSLEEKDHIHRVLDKITDTLIHLMAKAGLTLQQQHQRLAQLLLILSHIRHMSNKGMEHLYSMKCKNVVPLYDLLLEMLDAHRLHAPTSRGGASVEETDQSHLATAGSTSSHSLQKYYITGEAEGFPATV
notes: not shown: Gaussia luciferase (Gluc), carboxyl-terminal fragment Gluc2, amino acids 94-169
